From paper PMC11320123, “Unveiling the molecular mechanisms of the type IX secretion system's response regulator: Structural and functional insights” (PNAS Nexus, 2024)
Substitutions are numbered along the chain they refer to. Numbers in names are those of the source.

Tests used:
PorXFJ = target: T1, PorXFJ (Flavobacterium johnsoniae, UniProt A5FFU4); settings: phosphate analogue; bound at REC phosphorylation site (Asp54) and at APS catalytic site near Thr271; primitive orthorhombic crystal form
T1 construct: gene Fjoh_2906
T1 sequence (A5FFU4 1-517): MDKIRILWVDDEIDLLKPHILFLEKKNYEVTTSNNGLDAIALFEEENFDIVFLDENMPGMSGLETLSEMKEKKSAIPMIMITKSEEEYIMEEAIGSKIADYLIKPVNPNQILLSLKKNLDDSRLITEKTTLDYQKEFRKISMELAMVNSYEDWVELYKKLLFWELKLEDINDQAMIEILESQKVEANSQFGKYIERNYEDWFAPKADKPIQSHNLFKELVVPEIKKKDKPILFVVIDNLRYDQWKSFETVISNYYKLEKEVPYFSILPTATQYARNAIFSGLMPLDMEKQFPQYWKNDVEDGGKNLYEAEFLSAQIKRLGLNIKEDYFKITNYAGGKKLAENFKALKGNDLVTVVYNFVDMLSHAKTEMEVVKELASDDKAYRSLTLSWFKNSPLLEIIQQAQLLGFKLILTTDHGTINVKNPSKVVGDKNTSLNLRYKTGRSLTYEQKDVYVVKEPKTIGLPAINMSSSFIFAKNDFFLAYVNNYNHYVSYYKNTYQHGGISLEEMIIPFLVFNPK

[1] = target: T2, THB + APS truncation mutant of PorXFJ (Flavobacterium johnsoniae, UniProt A5FFU4); experiment: phosphodiesterase assay; type: biochemical; settings: zinc-dependent
T2 construct: gene Fjoh_2906; REC domain truncated, residues 126–end; ~46 kDa; E. coli BL21
T2 sequence (A5FFU4 126-517): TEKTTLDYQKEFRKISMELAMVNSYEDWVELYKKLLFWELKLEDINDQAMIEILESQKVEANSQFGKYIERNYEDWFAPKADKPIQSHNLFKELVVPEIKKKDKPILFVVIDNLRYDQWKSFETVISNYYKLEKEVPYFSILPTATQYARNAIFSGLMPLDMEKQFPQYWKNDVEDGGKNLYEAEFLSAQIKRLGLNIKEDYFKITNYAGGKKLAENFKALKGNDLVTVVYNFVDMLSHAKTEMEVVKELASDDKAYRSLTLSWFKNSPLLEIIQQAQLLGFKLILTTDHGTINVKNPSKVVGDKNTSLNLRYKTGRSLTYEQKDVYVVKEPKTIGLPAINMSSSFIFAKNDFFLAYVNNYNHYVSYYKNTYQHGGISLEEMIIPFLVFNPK

[2] = target: the molecule itself; experiment: SEC; protein incubated with acetyl phosphate (AcP) in the presence of magnesium; Superdex200inc 10/300 GL for wild type and point mutants, Superdex75inc 10/300 GL for truncations; monomer to dimer
[3] = target: the molecule itself; experiment: SEC; protein incubated with zinc only (no AcP); Superdex200inc 10/300 GL for wild type and point mutants, Superdex75inc 10/300 GL for truncations; monomer to dimer
[4] = target: the molecule itself; experiment: SEC; protein incubated with acetyl phosphate (AcP) in the presence of magnesium; Superdex200inc 10/300 GL for wild type and point mutants, Superdex75inc 10/300 GL for truncations; monomer to dimer; remark: listed apart in the source
[5] = target: the molecule itself; experiment: SEC; protein incubated with zinc only (no AcP); Superdex200inc 10/300 GL for wild type and point mutants, Superdex75inc 10/300 GL for truncations; monomer to dimer; remark: listed apart in the source

Molecule: [F][Be-]([F])[F] [BeF3]
- X-ray co-crystal structure (PorXFJ): we have co-crystallized PorXFJ with the phosphate analog, BeF3

Molecule: O=[N+]([O-])c1ccc(OP(=O)(O)Oc2ccc([N+](=O)[O-])cc2)cc1 [bis(p-nitrophenyl) phosphate]
- phosphodiesterase assay [1]: full-length PorXFJ and the THB + APS truncation mutant

B1: PorX from Flavobacterium johnsoniae (PorXFJ), wild type, full length (natural protein, UniProt A5FFU4 1-517, looked up)
chain: T1 sequence (A5FFU4 1-517)
notes: also called WT; Fjoh_2906; source: E. coli BL21, purified (Ni-NTA, thrombin cleavage, SEC); not shown: 10x-His, N-terminal, cleaved
- binding result [2]: binds

B2: PorXFJ REC + THB domains (1–208) (domain or fragment, UniProt A5FFU4 1-208, looked up)
chain: MDKIRILWVDDEIDLLKPHILFLEKKNYEVTTSNNGLDAIALFEEENFDIVFLDENMPGMSGLETLSEMKEKKSAIPMIMITKSEEEYIMEEAIGSKIADYLIKPVNPNQILLSLKKNLDDSRLITEKTTLDYQKEFRKISMELAMVNSYEDWVELYKKLLFWELKLEDINDQAMIEILESQKVEANSQFGKYIERNYEDWFAPKADK
notes: also called REC + THB domains truncated variant; source: E. coli BL21, purified (Ni-NTA, thrombin cleavage, SEC); not shown: 10x-His, N-terminal, cleaved
- binding result [3]: binds

B3: PorXFJ APS + THB domains (126–end) (domain or fragment, UniProt A5FFU4 126-517, looked up)
chain: T2 sequence (A5FFU4 126-517)
notes: also called THB + APS truncation mutant; THB + APS domains; source: E. coli BL21, purified (Ni-NTA, thrombin cleavage, SEC); not shown: 10x-His, N-terminal, cleaved
- binding result [3]: binds

B4: PorXFJ T271V (APS domain catalytically inactive mutant) (natural protein, UniProt A5FFU4 1-517, looked up)
chain: T1 sequence (A5FFU4 1-517) with T271V
notes: source: E. coli BL21, purified (Ni-NTA, thrombin cleavage, SEC); not shown: 10x-His, N-terminal, cleaved
- binding result [4]: binds

B5: PorXFJ D360A/H364A double mutant (zinc coordination, Zn1 site) (natural protein, UniProt A5FFU4 1-517, looked up)
chain: T1 sequence (A5FFU4 1-517) with D360A, H364A
notes: as for B4
- binding result [4]: binds

B6: PorXFJ S384A/S388E double mutant (APS domain dimerization interface) (natural protein, UniProt A5FFU4 1-517, looked up)
chain: T1 sequence (A5FFU4 1-517) with S384A, S388E
notes: also called S348A/S388E (as printed once); source: E. coli BL21, purified (Ni-NTA, thrombin cleavage, SEC); not shown: 10x-His, N-terminal, cleaved
- binding result [4]: binds

B7: PorXFJ REC domain (1–121) (domain or fragment, UniProt A5FFU4 1-121, looked up)
chain: MDKIRILWVDDEIDLLKPHILFLEKKNYEVTTSNNGLDAIALFEEENFDIVFLDENMPGMSGLETLSEMKEKKSAIPMIMITKSEEEYIMEEAIGSKIADYLIKPVNPNQILLSLKKNLDD
notes: also called REC domain only truncation variant; source: E. coli BL21, purified (Ni-NTA, thrombin cleavage, SEC); not shown: 10x-His, N-terminal, cleaved
- binding result [4]: binds

B8: PorXFJ D54A (REC domain phosphorylation-null mutant) (natural protein, UniProt A5FFU4 1-517, looked up)
chain: T1 sequence (A5FFU4 1-517) with D54A
notes: as for B4
- binding result [5]: binds

B9: PorXFJ L113E (REC domain dimerization interface mutant) (natural protein, UniProt A5FFU4 1-517, looked up)
chain: T1 sequence (A5FFU4 1-517) with L113E
notes: as for B4
- binding result [5]: binds
